The values that follow come from patent US20220340682A1 (Sanofi, published 2022).

The target in assay [1] is T1, hCEACAM5, human CEACAM5 ECD (35-685) (human, UniProt P06731 35-685).
T1 construct: produced in HEK293; also called human CEACAM5 protein; human CEACAM5 extracellular domain
T1 sequence: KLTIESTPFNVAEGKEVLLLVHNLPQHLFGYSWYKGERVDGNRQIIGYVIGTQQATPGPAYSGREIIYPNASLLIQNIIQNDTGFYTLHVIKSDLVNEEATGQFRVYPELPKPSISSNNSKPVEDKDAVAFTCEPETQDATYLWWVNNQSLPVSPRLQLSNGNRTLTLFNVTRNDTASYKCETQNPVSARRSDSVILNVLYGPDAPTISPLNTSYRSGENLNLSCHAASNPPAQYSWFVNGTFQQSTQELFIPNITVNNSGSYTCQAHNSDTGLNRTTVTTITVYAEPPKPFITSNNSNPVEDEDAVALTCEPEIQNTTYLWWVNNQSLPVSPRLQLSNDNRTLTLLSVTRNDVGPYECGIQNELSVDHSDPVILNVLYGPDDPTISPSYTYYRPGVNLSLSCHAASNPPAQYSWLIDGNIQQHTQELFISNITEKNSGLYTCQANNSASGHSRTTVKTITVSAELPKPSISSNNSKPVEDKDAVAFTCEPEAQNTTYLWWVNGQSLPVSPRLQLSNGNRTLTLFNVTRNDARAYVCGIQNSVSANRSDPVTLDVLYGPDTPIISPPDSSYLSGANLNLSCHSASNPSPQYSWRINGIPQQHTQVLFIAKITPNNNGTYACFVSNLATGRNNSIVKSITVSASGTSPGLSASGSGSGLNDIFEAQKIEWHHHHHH
The experiment in a line: ELISA.

In assay [2] the target is T2, cCEACAM5, M. fascicularis CEACAM5 ECD (35-688) (Macaca fascicularis).
T2 construct: ECD followed by a 24 amino acid extension containing a His-Tag; also called cynomolgus CEACAM5; monkey CEACAM5
T2 chain: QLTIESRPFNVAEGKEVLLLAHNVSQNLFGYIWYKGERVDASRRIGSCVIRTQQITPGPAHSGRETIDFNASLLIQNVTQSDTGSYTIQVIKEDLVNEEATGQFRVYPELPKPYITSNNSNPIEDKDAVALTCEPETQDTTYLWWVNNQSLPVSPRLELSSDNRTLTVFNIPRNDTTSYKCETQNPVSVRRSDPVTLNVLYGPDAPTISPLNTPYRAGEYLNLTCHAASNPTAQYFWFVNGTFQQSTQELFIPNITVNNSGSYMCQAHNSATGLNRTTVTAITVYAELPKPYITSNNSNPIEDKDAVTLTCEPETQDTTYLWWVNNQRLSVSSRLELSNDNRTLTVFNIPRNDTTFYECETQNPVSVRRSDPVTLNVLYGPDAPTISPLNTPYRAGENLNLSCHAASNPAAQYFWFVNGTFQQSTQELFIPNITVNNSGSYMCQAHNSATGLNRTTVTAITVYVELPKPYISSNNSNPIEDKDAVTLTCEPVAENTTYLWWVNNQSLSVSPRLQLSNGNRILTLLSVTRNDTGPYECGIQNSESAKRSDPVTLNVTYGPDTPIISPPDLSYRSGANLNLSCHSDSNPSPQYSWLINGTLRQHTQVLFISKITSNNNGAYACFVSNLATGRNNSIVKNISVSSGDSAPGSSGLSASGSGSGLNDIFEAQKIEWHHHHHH
The experiment in a line: ELISA. (An ELISA detects its analyte on a solid surface through an enzyme-linked reagent.)

Assay [3] concerns the target T1, hCEACAM5, human CEACAM5 ECD (35-685). The experiment in a line: ELISA. This is another data set of the same source.
The target of assay [4] is T3, hCEACAM7, human CEACAM7 ECD (36-248) (human).
T3 construct: With 24 amino acid extension containing a His-Tag
T3 chain: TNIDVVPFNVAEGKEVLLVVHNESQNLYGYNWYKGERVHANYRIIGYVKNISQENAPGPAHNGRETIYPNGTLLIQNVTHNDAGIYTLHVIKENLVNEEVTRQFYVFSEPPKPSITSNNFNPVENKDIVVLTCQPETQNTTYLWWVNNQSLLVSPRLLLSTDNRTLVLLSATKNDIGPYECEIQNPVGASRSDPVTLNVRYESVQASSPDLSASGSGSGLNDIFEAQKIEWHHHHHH
The experiment in a line: ELISA.

Assay [5] deals with T1, hCEACAM5, human CEACAM5 ECD (35-685). The experiment in a line: SPR (BIAcore 2000), mAb captured by anti-human Fc, antigen injected 1-500 nM. As to the method:
(§1) The binding kinetics of humanized anti-CEACAM5_MAb2 variants, compared with chimeric MAb2, to recombinant human CEACAM5 (hCEACAM5) and cynomolgus monkey CEACAM5 (cCEACAM5) were determined by surface plasmon resonance assay using a BlAcore 2000 (BlAcore Inc., Uppsala, N.J.).
(§2) Briefly, a CM5 BlAcore biosensor chip was docked into the instrument and activated with 70 μL of 1:1 NHS/EDC at room temperature. A mouse anti-ahuman Fc IgG1 (BlAcore # BR-1008-39) (50 μg/mL in […] acetate buffer, pH5) were immobilized on the activated chips in all flow cells. The immobilization was carried out at a flow rate of 10 μL/min up to saturation. The chip was then blocked by injection of 70 μL of ethanolamine-HCl, pH8.5, followed by one wash with 3M MgCl2. To measure the binding of anti-CEACAM5 mAbs to the human CEACAM5 protein or cynomolgus CEACAM5 protein, antibodies were used at 1-5 μg/mL in BlAcore running buffer (HBS-EP). Antigens (human CEACAM5 or cynomolgus CEACAM5) were injected from 1 to 500 nM. Following completion of the injection phase, dissociation was monitored in a BlAcore running buffer at the same flow rate for 600 sec. The surface was regenerated between injections using 2×5 μL MgCl2 3M (2×30s). Individual sensorgrams were analyzed using BlAevaluation software.
For orientation: In SPR one partner is held on a chip, and binding of the other changes the refractive index at the surface.

Assay [6] addresses T2, cCEACAM5, M. fascicularis CEACAM5 ECD …. The description is as above. The procedure:
as §1, §2

B1: huMAb2-3 (antibody, human IgG1, kappa, V domains shown)
VH: EVQLQESGPGLVKPGGSLSLSCAASGFVFSSYDMSWVRQTPERGLEWVAYISSGGGITYAPSTVKGRFTVSRDNAKNTLYLQMNSLTSEDTAVYYCAAHYFGSSGPFAYWGQGTLVTVSS
VL: DIQMTQSPASLSASVGDRVTITCRASENIFSYLAWYQQKPGKSPKLLVYNTRTLAEGVPSRFSGSGSGTDFSLTISSLQPEDFATYYCQHHYGTPFTFGSGTKLEIKR
notes: Humanized MAb2, human IgG1 / Ckappa; also called MAb2_VL1cVH1a-IgG1
With B1, the figures for the EC50 in assay [1] and in assay [2] were 0.18 nM and 0.19 nM, respectively. Besides, the “percentage of binding compared to full binding with human CEACAM5” value (shortened to “percentage of binding”) was determined as 100% in assay [3] and 0.3% in assay [4]. Moreover, the Kd (as a rule, the free concentration of one partner at which half of the binding sites on the other are occupied at equilibrium, for simple one-to-one binding) in assay [5] is 11.7 nM; in assay [6] it was 73.5 nM.

B2: huMAb2-1 (antibody, V domains shown)
VH: EVQLQESGPGLVKPGGSLSLSCAASGFVFSSYDMSWVRQTPERRLEWVAYISSGGGITYFPSTVKGRFTVSRDNAKNTLYLQMNSLTSEDTAIYYCAAHYFGSSGPFAYWGQGTLVTVSA
VL: DIQMTQSPASLSASVGDTVTITCRASENIFSYLAWYQQKPGKSPKLLVYNTKTLAEGVPSRFSGSGSGTQFSLTISSLQPEDFGSYYCQHHYGTPFTFGSGTKLEIK
notes: Humanized MAb2 (VL1 + VH1) fused to human IgG1 and human Ckappa constant domains; also called MAb2_VL1VH1-IgG1; MAb2VL1VH1-IgG1
Turning to B2, the EC50 (as a rule, the concentration needed to bring the measured effect to its halfway point) in assay [1] stood at 0.22 nM; in assay [2] it was 0.2 nM. Moreover, the “percentage of binding” value in assay [3] amounted to 100%; in assay [4] it was 0.3%. For the same molecule, the Kd in assay [5] amounted to 9.8 nM; in assay [6], 41.7 nM.

B3: huMAb2-2 (antibody, V domains shown)
VH: EVQLQESGPGLVKPGGSLSLSCAASGFVFSSYDMSWVRQTPERGLEWVAYISSGGGITYAPSTVKGRFTVSRDNAKNTLYLQMNSLTSEDTAVYYCAAHYFGSSGPFAYWGQGTLVTVSS
VL: DIQMTQSPASLSASVGDRVTITCRASENIFSYLAWYQQKPGKSPKLLVYNTKTLAEGVPSRFSGSGSGTDFSLTISSLQPEDFATYYCQHHYGTPFTFGSGTKLEIK
notes: Humanized MAb2 (VL1a + VH1a) fused to human IgG1 and human Ckappa constant domains; also called MAb2_VL1aVH1a-IgG1; MA2_VL1aVH1a-IgG1
Turning to B3, the EC50 worked out at 0.2 nM in assay [1] and 0.17 nM in assay [2]. Besides, the “percentage of binding” value in assay [3] was determined as 100%; in assay [4], 0.3%. Also, the Kd in assay [5] was found to be 24.5 nM; in assay [6], 96 nM.

B4: huMAb2-4 (antibody, human IgG1, kappa, V domains shown)
VH: EVQLQESGPGLVKPGGSLSLSCAASGFVFSSYDMSWVRQTPERRLEWVAYISSGGGITYFPSTVKGRFTVSRDNAKNTLYLQMNSLTSEDTAIYYCAAHYFGSSGPFAYWGQGTLVTVSA
VL: DIQMTQSPASLSASVGDTVTITCRASENIFSYLAWYQQKPGKSPKLLVYNTRTLAEGVPSRFSGSGSGTQFSLTISSLQPEDFGSYYCQHHYGTPFTFGSGTKLEIKR
notes: Humanized MAb2, human IgG1 / Ckappa; also called MAb2_VL1d VH1-IgG1; MAb2_VL1dVH1-IgG1
Turning to B4, the results for the EC50 in assay [1] and in assay [2] were 0.22 nM and 0.17 nM, respectively. The entries for the “percentage of binding” value in assay [3] and in assay [4] were 100% and 0.3%, respectively. The Kd in assay [5] worked out at 6.9 nM; in assay [6], 38.6 nM.

B5: chMAb2 (antibody, human IgG1, kappa, V domains shown)
VH: EVQLQESGGVLVKPGGSLKLSCAASGFVFSSYDMSWVRQTPEKRLEWVAYISSGGGITYFPDTVQGRFTVSRDNAKNTLYLQMNSLKSEDTAIYYCAAHYFGSSGPFAYWGQGTLVTVSA
VL: DIQMTQSPASLSASVGETVTITCRASENIFSYLAWYQQKQGKSPQLLVYNTKTLAEGVPSRFSGSGSGTQFSLKINSLQPEDFGSYYCQHHYGTPFTFGSGTKLEIKR
notes: Chimeric, human IgG1, Ck isotype; also called MAb2-IgG1; chimeric MAb2
In the case of B5, the values for the EC50 in assay [1] and in assay [2] were 0.16 nM and 0.17 nM, respectively. Further, the “percentage of binding” value in assay [3] stood at 100%; in assay [4], 0.3%. In addition, the Kd in assay [5] amounted to 9.9 nM; in assay [6] it was 52.3 nM.
